Measurements reported in article PMC11154705, “Spatio-temporal control of asymmetric septum positioning during sporulation in Bacillus subtilis” (The Journal of Biological Chemistry, 2024).
Where “and” joins values, the source holds several entries; their conditions need not be identical. Equal entries are not always repeated.

Molecular target: the molecule itself
Assay: SEC; Superdex S200 16/60 in 50 mM Tris-HCl pH 8.5, 300 mM NaCl; proteins applied separately or mixed (350 ul RefZ 28.8 uM premixed with 350 ul cyt-SpoIIE 15.5 uM, dialyzed overnight, 500 ul loaded); fractions analysed by anti-His Western blot

B1: His-tagged cytosolic part of SpoIIE (375-827 aa) (domain or fragment, B. subtilis, UniProt P37475 375-827, looked up)
chain: YQASDEQTDDSEVDLFLSKITEHSCQTCYKKNRCWVQNFDKTYDLMKQVMLETEEKEYASNRRLKKEFQQYCSKSKQVEELIEDELAHHHAHLTLKKKVQDSRRLVAEQLLGVSEVMADFSREIKREREQHFLQEEQIIEALQHFGIEIQHVEIYSLEQGNIDIEMTIPFSGHGESEKIIAPMLSDILEEQILVKAEQHSPHPNGYSHVAFGSTKSYRVSTGAAHAAKGGGLVSGDSYSMMELGARKYAAAISDGMGNGARAHFESNETIKLLEKILESGIDEKIAIKTINSILSLRTTDEIYSTLDLSIIDLQDASCKFLKVGSTPSFIKRGDQVMKVQASNLPIGIINEFDVEVVSEQLKAGDLLIMMSDGIFEGPKHVENHDLWMKRKMKGLKTNDPQEIADLLMEEVIRTRSGQIEDDMTVVVVRIDHNTPKWASIPVPAIFQNKQEIS
notes: SpoIIE, Bacillus subtilis, cytosolic part, residues 375-827; Elutes as dimers, tetramers and higher oligomers; also called cyt-SpoIIE; not shown: His-tag, N-terminal, kept
  stoichiometry N: 2 and 4
